# Measurements: PMC9889962 (Antibody Therapeutics, 2023)
# Assays:
# [1] = molecular target: SARS-CoV-2 Omicron B.1.1.529 RBD only (SARS-CoV-2, UniProt P0DTC2); assay: SPR; details: both partners purified
# [2] = molecular target: SARS-CoV-2 Alpha variant B.1.1.7, S1 subunit (SARS-CoV-2); assay: SPR; details: both partners purified
binder,measurement,setting,value
LiVE-Longer YTE chimera (ACE-2 LVE/STR-YTE fusion protein) (Fc fusion) QSTIEEQAKLFLDKFNVEAEDLFYQSSLASWNYNTNITEENVQNMNNAGDKWSAFLKEQSTLAQMYPLQEIQELTVKLQLQALQQNGSSVLSEDKSKRLNTILNTMSTIYSTGKVCNPDNPQECLLLEPGLNEIMANSLDYNERLWAWESWRSEVGKQLRPLYEEYVVLKNEMARANHYEDYGDYWRGDYEVNGVDGYDYSRGQLIEDVEHTFEEIKPLYEHLHAYVRAKLMNAYPSYISPIGCLPAHLLGDMWGRFWTNLYSLTVPFGQKPNIDVTDAMVDQAWDAQRIFKEAEKFFVSVGLPNMTQGFWENSMLTDPGNVQKAVCHPTAWDLGKGDFRILMCTKVTMDDFLTAHHEMGHIQYDMAYAAQPFLLRNGANEGFHEAVGEIMSLSAATPKHLKSIGLLSPDFQEDNETEINFLLKQALTIVGTLPFTYMLEKWRWMVFKGEIPKDQWMKKWWEMKREIVGVVEPVPHDETYCDPASLFHVSNDYSFIRYYTRTLYQFQFQEALCQAAKHEGPLHKCDISNSTEAGQKLFNMLRLGKSEPWTLALENVVGAKNMNVRPLLNYFEPLFTWLKDQNKNSFVGWSTDWSPYADQSIKVRISLKSALGDKAYEWNDNEMYLFRSSVAYAMRQYFLKVKNQMILFGEEDVRVANLKPRISFNFFVTAPKNVSDIIPRTEVEKAIRMSRSRINDAFRLNDNSLEFLGIQPTLGPPNQPPVS,Kd,[1],0.402 nM
same,Kd,[2],0.093 nM
